Experimental data as given in paper PMC12077149, “Evolution of PqsE as a Pseudomonas aeruginosa-specific regulator of LuxR-type receptors: insights from Pseudomonas and Burkholderia” (mBio, 2025).

Columns and labels:
[1] = tested on: CC(=O)CC(=O)SCCNC(=O)CCNC(=O)[C@H](O)C(C)(C)COP(=O)(O)OP(=O)(O)OC[C@H]1O[C@@H](n2cnc3c(N)ncnc32)[C@H](O)[C@@H]1OP(=O)(O)O; assay: purified protein; conditions: 0.1 M Tris-HCl pH 8.0, 2 mM DTNB, 2 µM enzyme, substrate up to 1 mM
[2] = tested on: CCCC(=O)Oc1ccc2c(C)cc(=O)oc2c1; assay: purified protein; conditions: 50 mM Tricine, 0.01% Triton X-100; 2 µM enzyme; substrate up to 8 µM

Substance “PqsE (Pseudomonas aeruginosa UCBPP-PA14)” has a Km [1] of 3.2 ± 0.2 mM, a kcat [1] of 0.438 ± 0.05 s⁻¹ and a kcat/Km [1] of 140 M⁻¹ s⁻¹. The Km [2] was 8.1 ± 0.1 µM, the kcat [2] was 0.0197 ± 0.09 s⁻¹ and the kcat/Km [2] was 2400 M⁻¹ s⁻¹.
